Results from article PMC5515574.

Assays:
[1] = biological target: mutant T238V yeast αβ-tubulin (T238V in Tub2p, β-tubulin) (yeast (S. cerevisiae)) (UniProt P09733); assay: laser trap plucking force assay; bead tethered by a single anti-His antibody to the His6 tag of β-tubulin at the growing end of a coverslip-anchored microtubule; force ramp 0.25 pN s^-1 until detachment; only detachments followed at once by disassembly counted; removal of tubulin dimers from the microtubule end
[2] = biological target: wild-type yeast αβ-tubulin with a His6 tag fused to the C-terminus of β-tubulin (yeast (S. cerevisiae)) (UniProt P09733); assay: as above

| plucking force [1] | plucking force [2] | Substance |
| --- | --- | --- |
| 19 pN |  | mutant T238V yeast αβ-tubulin (T238V in Tub2p, β-tubulin) (from UniProt P09733 1-447; P02557 1-457) (complex) |
|  | 8.3 pN | wild-type yeast αβ-tubulin with a His6 tag fused to the C-terminus of β-tubulin (from UniProt P09733 1-447; P02557 1-457) (complex) |
